The results in this text go back to US20230365641A1 (XILIO DEVELOPMENT, published 2023).

Changes are numbered by the printed parent chain. Numbers in names are those of the source. Where two headings read alike, the source gives them in different places.

Assay [1] deals with T1, PD-1 (antigen of the ELISA and of the in vitro affinity measurement) (UniProt Q15116 25-167, limits assumed). Nature of the assay: kinetic binding table: TC4 captured as ligand (capture level 74.3 RU), hPD1-his as sample; method not given.
The target of assay [2] is T1, PD-1 (antigen of the ELISA and of the …). The assay can be described thus: ELISA.
For assay [3] the target is unchanged. The assay can be described thus: ELISA on PD-1.
For assay [4] the target is unchanged. Nature of the assay: ELISA on PD-1. This is another data set of the same source. (In general: An ELISA detects its analyte on a solid surface through an enzyme-linked reagent.)
For assay [5] the target is unchanged. The assay can be described thus: ELISA on PD-1. The source holds these as a separate data set.
The target is the same in assay [6]. The assay can be described thus: ELISA on PD-1. The source holds these as a separate data set.
For assay [7], the target named is T2, PD-1 shown on cells (Raji-PD-1 cells); CD3/CD28 activated human CD8+ T cells; PD-1 effector cells of the … (human, UniProt Q15116 25-288). The assay can be described thus: cell-based or functional assay.
Assay [8] concerns the target T2, PD-1 shown on cells (Raji-PD-1 cells; …). The assay can be described thus: cell-based or functional assay. The source holds these as a separate data set.
Assay [9] has the same target. The assay can be described thus: cell-based or functional assay. This is another data set of the same source.
For assay [10] the target is unchanged. Nature of the assay: flow cytometry, on-cell binding to PD-1 expressing Raji cells, anti-human IgG-PE. (In general: In flow cytometry, cells or beads pass a laser one at a time.)
The target is the same in assay [11]. The description is as above. The source holds these as a separate data set.
Assay [12] has the same target. The description is as above. The source holds these as a separate data set.
The target is the same in assay [13]. The assay can be described thus: flow cytometry on CD3+CD8+ T cells within CD3/CD28 activated human PBMCs, 1 h at 4 C, anti-human IgG PE, % anti-hIgG+; table CD8+ T cells under the graph. On the procedure:
Mixed donor lots of human peripheral blood mononuclear cells (PBMCs) were thawed and seeded in medium (RPMI1640, 10% fetal bovine serum (FBS), 2 mM 1-Glutamine, 50 U/mL penicillin, 50 μg/mL streptomycin, 1 μM each of non-essential amino acids, 10 mM HEPES, 1 mM sodium pyruvate, 55 μM B-mercaptoethanol, 10 μg/mL gentamycin) into tissue culture treated plates that were coated for 1 h at 37° C. with 1 μg/ml anti-CD3. Anti-CD28 was added in solution at a concentration of 5 μg/ml. Two days later the PBMCs were collected and transferred into a 96 well v-bottom plate at 100,000 cells per well in FACS Buffer (2% FBS in phosphate buffered saline (PBS)). Test articles were diluted to twice the indicated concentration in FACS buffer. Test articles were added to cells at a 1:1 ratio to the final concentration indicated in the figure and incubated for 1 h at 4° C. The cells were washed three times with FACS buffer and fixed in 4% PFA. Cells were then washed once in FACS buffer. All cells were stained in 100 μL of indicated molecules in FACS buffer for 1 h at 4° C. The cells were washed three times with FACS buffer and fixed in 4% paraformaldehyde (PFA). All cells were subsequently stained in 100 μL with anti-human IgG PE, anti-CD3 PE/Dazzle 594, anti-CD45 PerCP Cy5.5, anti-CD8 BV510, and anti-CD4 BV421 for 30 minutes. Cells were washed twice to remove unbound antibody and analyzed on the BD Celesta by gating on CD3+CD8+ T cells.

T1 sequence (Q15116 25-167 limits assumed): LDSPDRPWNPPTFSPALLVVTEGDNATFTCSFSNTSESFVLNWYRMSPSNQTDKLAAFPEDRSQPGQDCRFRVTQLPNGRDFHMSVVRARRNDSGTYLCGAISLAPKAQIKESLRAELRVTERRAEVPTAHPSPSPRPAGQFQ
T2 sequence (Q15116 25-288): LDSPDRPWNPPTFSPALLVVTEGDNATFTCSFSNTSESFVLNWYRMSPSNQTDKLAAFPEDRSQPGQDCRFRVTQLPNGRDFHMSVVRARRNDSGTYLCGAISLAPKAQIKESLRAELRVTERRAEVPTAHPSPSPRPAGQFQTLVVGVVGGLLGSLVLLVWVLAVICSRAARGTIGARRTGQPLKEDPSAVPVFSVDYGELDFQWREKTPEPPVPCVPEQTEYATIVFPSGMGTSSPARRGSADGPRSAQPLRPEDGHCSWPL

B1: TC4 (Fc fusion)
heavy 1: QVQLVQSGVEVKKPGASVKVSCKASGYTFTNYYMYWVRQAPGQGLEWMGGINPSNGGTNFNEKFKNRVTLTTDSSTTTAYMELKSLQFDDTAVYYCARRDYRFDMGFDYWGQGTTVTVSSASTKGPSVFPLAPSSKSTSGGTAALGCLVKDYFPEPVTVSWNSGALTSGVHTFPAVLQSSGLYSLSSVVTVPSSSLGTQTYICNVNHKPSNTKVDKKVEPKSCDKTHTCPPCPAPELLGGPSVFLFPPKPKDTLMISRTPEVTCVVVDVSHEDPEVKFNWYVDGVEVHNAKTKPREEQYASTYRVVSVLTVLHQDWLNGKEYKCKVSNKALPAPIEKTISKAKGQPREPQVYTLPPCRDELTKNQVSLWCLVKGFYPSDIAVEWESNGQPENNYKTTPPVLDSDGSFFLYSKLTVDKSRWQQGNVFSCSVMHEALHNRFTQKSLSLSPGGGSSPPGGGSSGGGSGPAPTSSSTKKTQLQLEHLLLDLQMILNGINNYKNPKLTAMLTAKFAMPKKATELKHLQCLEEALKPLEEVLNLAQSKNFHLRPRDLISNINVIVLELKGSETTFMCEYADETATIVEFLNRWITFAQSIISTLT
heavy 2: QVQLVQSGVEVKKPGASVKVSCKASGYTFTNYYMYWVRQAPGQGLEWMGGINPSNGGTNFNEKFKNRVTLTTDSSTTTAYMELKSLQFDDTAVYYCARRDYRFDMGFDYWGQGTTVTVSSASTKGPSVFPLAPSSKSTSGGTAALGCLVKDYFPEPVTVSWNSGALTSGVHTFPAVLQSSGLYSLSSVVTVPSSSLGTQTYICNVNHKPSNTKVDKKVEPKSCDKTHTCPPCPAPELLGGPSVFLFPPKPKDTLMISRTPEVTCVVVDVSHEDPEVKFNWYVDGVEVHNAKTKPREEQYASTYRVVSVLTVLHQDWLNGKEYKCKVSNKALPAPIEKTISKAKGQPREPQVCTLPPSRDELTKNQVSLSCAVKGFYPSDIAVEWESNGQPENNYKTTPPVLDSDGSFFLVSKLTVDKSRWQQGNVFSCSVMHEALHNHYTQKSLSLSPGGPPSGSSPVPLSLYSGSGGGAVNGTSQFTCFYNSRANISCVWSQDGALQDTSCQVHAWPDRRRWNQTCELLPVSQASWACNLILGAPDSQKLTTVDIVTLRVLCREGVRWRVMAIQDFKPFENLRLMAPISLQVVHVETHRSNISWEISQASHYFERHLEFEARTLSPGHTWEEAPLLTLKQKQEWISLETLTPDTQYEFQVRVKPLQGEFTTWSPWSQPLAFRTKPAALGKD
light: EIVLTQSPATLSLSPGERATLSCRASKGVSTSGYSYLHWYQQKPGQAPRLLIYLASYLESGVPARFSGSGSGTDFTLTISSLEPEDFAVYYCQHSRDLPLTFGGGTKVEIKRTVAAPSVFIFPPSDEQLKSGTASVVCLLNNFYPREAKVQWKVDNALQSGNSQESVTEQDSKDSTYSLSSTLTLSKADYEKHKVYACEVTHQGLSSPVTKSFNRGEC
By Kd is commonly meant the concentration at which binding is half-saturated. What is called koff is a measure of how fast the partners let go of each other. Low values mean slow dissociation, high ones fast dissociation. One may read the kon as the rate constant with which the complex forms. A high value points to faster complex formation. Consider B1, for which, in assay [1], binding was put at a Kd of 6.58 nM, the off-rate constant (koff) is 0.00306 s⁻¹ and the kon was 465000 M⁻¹ s⁻¹.

B2: TC46 (Fc fusion)
heavy 1: B1 heavy 1
heavy 2: B1 heavy 2 with V458M, L460Y, S461D, S464H, G465P, S591A, N592C, S637C
light: B1 light
notes: Mask CD122 (C122A, N123C); also called PembroFab-IgG1 (N297A, MST, RF)-CD122*
Usually EC50 (read off the curve) stands for the concentration that produces a half-maximal response. A low value points to higher potency in that assay. What is called EC50 is the concentration giving half of the maximal effect. Higher therefore signals a need for much substance. As to B2, the values for the dissociation constant (Kd) in [2] and in assay [6] were 0.33 nM and 0.18 nM, respectively. Besides, the concentration giving a half-maximal response (EC50 (read off the curve)) was around 0.2 nM in assay [3]; around 0.2 nM in [4]; around 0.2 nM in assay [5]; around 1 nM in [7]; around 0.7 nM in [10]; around 0.7 nM in [11]. Further, the “EC50, PD-1/PD-L1 blockade RGA (NFAT fold induction)” value in [8] turned out to be 1.34 nM; in assay [9], 1.47 nM. Also, the EC50 in assay [12] stood at 0.8 nM; in assay [13] it was 0.09 nM.
